Experiments:
[1] = test system: S. aureus strains/isolates RN6390, USA 300, R2932, R2952 and R3000; test: Turbidity reduction assay; format: cell-based, Staphylococcus aureus; conditions: at MIC, measured every 5 min up to 1 h
Method: Error bars represent SEM for three independent experiments performed in triplicates. […] Cells surviving at half (½) of the MIC value were used as an inoculum for each subsequent round of exposure. The change in susceptibility is recorded and presented as fold change resistance from day 1 to 10 of exposure and also after 5 days of growth (without any selection pressure) following the 10th day (represented as 10+5). The data represent means±SEM of two independent experiments performed in triplicate.
To verify and quantify the lytic activity against live S. aureus, we have tested Ply187AN-KSH3b in the Turbidity Reduction Assay. The turbidity assay measures the drop in optical density (OD) resulting from lysis of the target bacteria with the phage endolysin-derived protein. Turbidity reduction assays by chimeric Ply187AN-KSH3b were performed in a 96 well plate as described previously by Becker et al. (2009a, 2009b, supra). Briefly, S. aureus strains/isolates RN6390, USA 300, and clinical isolates R2932, R2952 and R3000 were grown to logarithmic phase (OD600 0.4-0.6) at 37° C. in tryptic Soy broth (TSB). The culture was harvested by centrifugation and the pellet was resuspended in assay buffer (400 mM NaCl, 20 mM Tris HCl, 1% glycerol, pH 7.5). […] The reduction in the turbidity was measured after every 5 min up to 1 h using a micro plate reader. […]

[2] = test system: S. aureus RN6390 endophthalmitis; test: Mouse S. aureus endophthalmitis: clinical score and slit lamp microscopy; format: in vivo, C57BL/6 mice; conditions: for mean clinical score: scored after 24 h, scale 0 to 4
Method: FIGS. 3A-3E show the effects of intravitreal injection of chimeric Ply187AN-KSH3b on the severity of S. aureus endophthalmitis. The eyes (n=10) of C57BL/6 mice were infected with S. aureus strain RN6390 and following either 6 h or 12 h post-infection, Ply187AN-KSH3b or EB (EB C) was administered by intravitreal injection. FIG. 3A depicts individual eyes assigned clinical scores (range 0 to 4; black dots represent an eye) and presented as mean clinical scores (bar with SEM). […] FIG. 3E depicts the total number of dead cells in the retinal sections that were counted and are presented as mean±SD of the TUNEL positive cells. A student's t test (**, p<0.005) was used for the statistical analysis and comparisons were made between the S. aureus (SA) control, SA+EBC, and SA+Ply187AN-KSH3b-treated group.
The eyes of C57BL/6 mice (female, 8 week old) were intravitreally injected with 1 μl of PBS containing 5000 colony forming units (CFU) of S. aureus RN6390 to induce endophthalmitis as described previously (Kumar et al., supra). The chimeric Ply187AN-KSH3b (1 μg/μl) treatment in EB was given after 6 h (group I) or 12 h (group II) post infection. In the control group, the eyes were treated with EB (EB C). The eye infected with S. aureus without any treatment was used as a disease control. Clinical examinations were performed using slit lamp microscopy. The ocular disease was graded, and clinical scores from 0 to 4.0 were assigned using the previously described scale (Whiston et al., supra; Ramadan et al. 2006. Curr. Eye Res. 31:955-965). The clinical score of 4 is considered as 100 percent damage. Based on this, the percent damage and percent retention of eyes were calculated in both Ply187AN-KSH3b-treated vs untreated S. aureus infected eyes. Mice were treated in compliance with the ARVO Statement for the Use of Animals in Ophthalmic and Vision Research and all procedures were approved by the Institutional Animal Care and Use Committee (IACUC) of Wayne State University.
We hypothesized that similar to antibiotics, chimeric Ply187AN-KSH3b would have beneficial effects in protecting the eyes from endophthalmitis. To test this hypothesis, we used a C57BL/6 mouse model of S. aureus endophthalmitis. Chimeric Ply187AN-KSH3b was administrated intravitreally (1 μg/eye in 1 μl volume of EB) 6 h and 12 h after bacterial infection. Eyes without any treatment or eyes injected with EB served as controls. After 24 h, each infected eye was assigned a clinical score.

[3] = test system: cultured microglia, Müller glia and RPE; test: Cytotoxicity analysis in vitro; format: cell-based; conditions: data not shown

B1: Ply187AN-KSH3b: staphylococcal peptidoglycan hydrolase fusion protein: endopeptidase domain of prophage endolysin Ply187 plus SH3b cell wall-binding domain of phage K endolysin LysK (SEQ ID NO:1) (protein)
chain: MALPKTGKPTAKQVVDWAINLIGSGVDVDGYYGRQCWDLPNYIFNRYWNFKTPGNARDMAWYRYPEGFKVFRNTSDFVPKPGDIAVWTGGNYNWNTWGHTGIVVGPSTKSYFYSVDQNWNNSNSYVGSPAAKIKHSYFGVTHFVRPAYKAEPKPTPPLESTPATRPVTGSWKKNQYGTWYKPENATFVNGNQPIVTRIGSPFLNAPVGGNLPAGATIVYDEVCIQAGHIWIGYNAYNGNRVYCPVRTCQGVPPNQIPGVAWGVFKVEHHHHHH
modifications: Chemically Synthesized Fusion Protein
**Q.** What does the source list for B1?
**A.** reduction in the turbidity of suspension culture [1]: time-dependent reduction in the turbidity; slit lamp microscopy appearance of eyes ([2]; 1 μg/eye intravitreal): clear/transparent corneas and/or anterior chambers; mean clinical score ([2]; treatment 6 h post infection, 1 μg/eye intravitreal): 0.2; mean clinical score ([2]; treatment 12 h post infection, 1 μg/eye intravitreal): 0.3; retention of eyes (conversion of clinical scores) ([2]; treatment group, clinical score 4 = 100 percent damage): 90-95%; retinal cell death in vitro [3]: does not cause retinal cell death

Reference: patent publication US20150335719A1, “Intravitreal Injection of a Chimeric Phage Endolysin Ply187; Protection from Staphylococcus aureus Endophthalmitis” (priority 2014, published 2015)
